The source of these data is PMC9234238.

One experiment addresses DLL4-Fc (UniProt Q9JI71). Kind of experiment: flow cytometry on cells (cell-based binding assay). The following applies: read off a plot; for percent of parent: HEK293T cells overexpressing N1 with Lfng cDNA, N1+LFNG set to 100%, parent: est. 100; for response: HEK293T cells overexpressing N1 without Lfng cDNA, MFI normalised to N1+LFNG = 100%, parent: est. 79. For orientation: In flow cytometry, cells or beads pass a laser one at a time.

The target of a further experiment is DLL1-Fc (UniProt Q61483). In words: flow cytometry on cells (cell-based binding assay). As to conditions: HEK293T cells overexpressing N1 with Lfng cDNA; N1+LFNG set to 100%; parent: est. 100; read off a plot.

As for “full-length mouse NOTCH1 (WT N1), coexpressed with LFNG (from UniProt Q01705) N1-6V (Thr of the O-fucose site in EGF6 changed to Val; residue number not printed)”, the percent of parent is 100 MFI(%) with DLL4-Fc and 92 MFI(%) in the experiment with DLL1-Fc.

Regarding “full-length mouse NOTCH1 (WT N1), coexpressed with LFNG (from UniProt Q01705) N1-16V (Thr of the O-fucose site in EGF16 changed to Val; residue number not printed)”, the percent of parent with DLL4-Fc was 89 MFI(%); with DLL1-Fc, 90 MFI(%). “full-length mouse NOTCH1 (WT N1), coexpressed with LFNG (from UniProt Q01705) N1-26V (Thr of the O-fucose site in EGF26 changed to Val; residue number not printed)”: the percent of parent with DLL4-Fc was 100 MFI(%); with DLL1-Fc it was 89 MFI(%).

“full-length mouse NOTCH1 (WT N1), coexpressed with LFNG (from UniProt Q01705) N1-27V (Thr of the O-fucose site in EGF27 changed to Val; residue number not printed)”: the percent of parent is 92 MFI(%) with DLL4-Fc and 71 MFI(%) with DLL1-Fc.

Consider “full-length mouse NOTCH1 (WT N1), expressed without LFNG (from UniProt Q01705) N1-6V (Thr of the O-fucose site in EGF6 changed to Val; residue number not printed)”, for which the response in the experiment with DLL4-Fc is 75 MFI(%). In the case of “full-length mouse NOTCH1 (WT N1), expressed without LFNG (from UniProt Q01705) N1-16V (Thr of the O-fucose site in EGF16 changed to Val; residue number not printed)”, the response in the experiment with DLL4-Fc was 79 MFI(%). As to “full-length mouse NOTCH1 (WT N1), expressed without LFNG (from UniProt Q01705) N1-26V (Thr of the O-fucose site in EGF26 changed to Val; residue number not printed)”, the response with DLL4-Fc is 85 MFI(%). In the case of “full-length mouse NOTCH1 (WT N1), expressed without LFNG (from UniProt Q01705) N1-27V (Thr of the O-fucose site in EGF27 changed to Val; residue number not printed)”, in the experiment with DLL4-Fc, the response was 82 MFI(%).
